B1: GAL4 AD alone (pACT2) (other, yeast, UniProt P04386 768-881, looked up)
chain: ANFNQSGNIADSSLSFTFTNSSNGPNLITTQTNSQALSQPIASSNVHDNFMNNEITASKIDDGNNSKPLSPGWTDQTAYNAFGITTGMFNTTTMDDVYNYLFDDEDTPPNPKKE
notes: domain: AD; Control prey
B2: GAL4 AD-ZHX1 fusion pAD-ZHX1 (345-463) (other, human, UniProt Q9UKY1 345-463, looked up, not shown: large carriers)
chain: PEEVEEARRKQFNGTVHTVPQTITVIPTHISTGSNGLPSILQTCQIVGQPGLVLTQVAGTNTLPVTAPIALTVAGVPSQNNIQKSQVPAAQPTAETKPATAAVPTSQSVKHETALVNPD
notes: range 345-463
B3: GAL4 AD-ZHX1 fusion pAD-ZHX1 (430-564) (other, human, UniProt Q9UKY1 430-564, looked up, not shown: large carriers)
chain: QVPAAQPTAETKPATAAVPTSQSVKHETALVNPDSFGIRAKKTKEQLAELKVSYLKNQFPHDSEIIRLMKITGLTKGEIKKWFSDTRYNQRNSKSNQCLHLNNDSSTTIIIDSSDETTESPTVGTAQPKQSWNPF
notes: range 430-564
B4: GAL4 AD-ZHX3 fusion pAD-ZHX3 (303-364) (other, not shown: large carriers)
chain: LSSIPTYNAAMDSNSFLKNSFHKFPYPTKAELCYLTVVTKYPEEQLKIWFTAQRLKQGISWS
notes: It is the HD1 region

In the test the target is T1, GAL4 DBD alone (pDBD) (yeast, UniProt P04386 1-147).
T1 construct: Control bait
T1 sequence (P04386 1-147 limits assumed): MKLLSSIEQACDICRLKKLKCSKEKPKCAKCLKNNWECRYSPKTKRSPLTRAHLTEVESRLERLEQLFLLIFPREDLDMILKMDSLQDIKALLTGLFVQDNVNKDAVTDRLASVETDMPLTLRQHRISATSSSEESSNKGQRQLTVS
The test is described as follows: yeast two-hybrid, β-galactosidase activity.
Take B1: the binding result is “no binding”.

As for B2, the binding result is “no binding”.

As for B3, the binding result is reported as “no binding”.

Consider B4, for which the binding result is “no binding”.

The record behind these values is patent US20070014790A1 (JAPAN SCIENCE AND TECHOLOGY AGENCY, published 2007).
